Measurements: PMC4077619, “Split luciferase complementation assay to detect regulated protein-protein interactions in rice protoplasts in a large-scale format” (Rice, 2014)

Molecular target: T1, CRLuc-H2B (Arabidopsis HISTONE 2B fused to the C-terminal fragment of Renilla luciferase) (Arabidopsis, UniProt Q9FFC0 1-145)
T1 construct: Arabidopsis HISTONE 2B (H2B), locus AT5G22880; cDNA inserted in a pDuEx vector; source: rice protoplasts, transformed (PEG) with a pDuEx vector (35S promoter), in cells
T1 sequence (Q9FFC0 whole entry, the tested form may be a part): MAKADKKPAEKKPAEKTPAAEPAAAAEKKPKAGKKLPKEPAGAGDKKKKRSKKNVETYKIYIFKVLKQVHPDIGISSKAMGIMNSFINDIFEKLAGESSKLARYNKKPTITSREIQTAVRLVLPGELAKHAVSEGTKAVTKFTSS
Test: split reporter (BiFC, NanoBiT); split Renilla luciferase complementation in living rice protoplasts, 96-well plate, W5 buffer, ViviRen substrate, RLU read 16 h after transformation; no hormone added (before the hormone or with W5 buffer only); H2A-H2B also tested with GA3 (Figure S1), RLU not increased
Conditions: partners not purified

fold RLU over a non-interaction protein pair: 10 fold
fold RLU over mock transformed protoplasts: 21 fold
B1: NRLuc-H2A (Arabidopsis HISTONE 2A fused to the N-terminal fragment of Renilla luciferase) (natural protein)
chain: not shown
notes: Arabidopsis HISTONE 2A (H2A), locus AT4G27230; cDNA inserted in a pDuEx vector; source: rice protoplasts, transformed (PEG) with a pDuEx vector (35S promoter), in cells
